# Test results from IntAct's records for PubMed 20890306.
# B1: FAS-associated death domain protein (Homo sapiens), Q13158 (parent)
# chain: MDPFLVLLHSVSSSLSSSELTELKFLCLGRVGKRKLERVQSGLDLFSMLLEQNDLEPGHTELLRELLASLRRHDLLRRVDDFEAGAAAGAAPGEEDLCAAFNVICDNVGKDWRRLARQLKVSDTKIDSIEDRYPRNLTERVRESLRIWKNTEKENATVAHLVGALRSCQMNLVADLVQEVQQARDLQNRSGAMSPMSWNSDASTSEAS
# Variants of: B1
# Details: with plk1_human PLK1, P53350
# Chain of plk1_human PLK1, P53350 (P53350 whole entry): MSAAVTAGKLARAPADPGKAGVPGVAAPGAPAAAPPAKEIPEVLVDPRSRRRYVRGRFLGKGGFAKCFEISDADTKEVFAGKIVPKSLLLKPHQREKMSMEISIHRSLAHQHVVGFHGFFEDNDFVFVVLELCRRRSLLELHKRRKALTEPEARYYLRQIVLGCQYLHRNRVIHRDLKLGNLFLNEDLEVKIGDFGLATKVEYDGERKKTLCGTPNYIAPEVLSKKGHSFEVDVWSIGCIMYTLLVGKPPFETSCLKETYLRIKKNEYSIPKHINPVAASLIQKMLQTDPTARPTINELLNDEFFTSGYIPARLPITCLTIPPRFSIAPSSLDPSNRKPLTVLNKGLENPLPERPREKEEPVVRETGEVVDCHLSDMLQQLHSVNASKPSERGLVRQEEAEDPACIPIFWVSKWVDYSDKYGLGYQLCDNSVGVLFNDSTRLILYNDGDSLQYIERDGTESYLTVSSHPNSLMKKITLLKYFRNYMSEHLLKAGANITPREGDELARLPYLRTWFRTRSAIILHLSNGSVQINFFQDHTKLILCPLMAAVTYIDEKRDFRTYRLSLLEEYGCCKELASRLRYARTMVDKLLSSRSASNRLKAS
row,Variant,effect of a mutation on the interaction
1,S194A,disrupting interaction
